The source of these data is US20210283258A1.

The target of this assay is HER2 receptor (human) (UniProt P04626). The assay is described as follows: cell-based or functional assay. The following applies: scale: % greater uptake compared to the non-targeted nanoparticle.

The substance “Herceptin®-PEG-nitroPBA targeted MAP-CPT nanoparticle (antibody)” gave a cellular uptake in BT-474 cell line (CPT fluorescence of cell lysate, 30 min at 37° C.) of 70.
